These results are taken from patent US20250263444A1 (KOREA UNIVERSITY RESEARCH AND BUSINESS FOUNDATION SEJONG …, published 2025).

Sequences and labels used below:
B1: Kaposi's sarcoma-associated herpesvirus (KSHV) viral interferon regulatory factor 3 (vIRF3), wild type (other)
chain: MAGRRLTWISEFIVGALDSDKYPLVKWLDRSTGTFLAPAARNDVIPLDSLQFFIDFKRECLSKGLHPRDLLGSPITAFGKICTTSRRLRRLPGEEYEVVQGINCRRWRLLCAEVKECWWCVHARTHLHSGSSLWEILYQHSVRLEKHRRRPRPFVGENSDSSEEDHPAFCDVPVTQTGAESEDSGDEGPSTRHTASGVQPVDDANADSPGSGDEGPSTRHSDSQPPPADEPTVHTDNVEDDLTLLDKESACALMYHVGQEMDMLMRAMCDEDLFDLLGIPEDVIATSQPGGDTDASGVVTEGSIAASAVGAGVEDVYLAGALEAQNVAGEYVLEISDEEVDDGAGLPPASRRRPVVGEFLWDDGPRRHERPTTRRIRHRKLRSAYYRVARPPVMITDRLGVEVFYFGRPAMSLEVERKVFILCSQNPLADISHSCLHSRKGLRVLLPKPDDNNTGPGDVNLLAAVLRSFASGLVIVSLRSGIYVKNLCKSTVLYHGNNPPKKFGVICGLSSRAVLDVFNVAQYRIQGHEHIKKTTVFIGGDPTSAEQFDMVPLVIKLRLRSVTCDD
B2: pyruvate kinase M2 (PKM2) (enzyme)
chain: not shown
notes: Either endogenous PKM2 of LECs or HA-tagged hPKM2 from pCMV-HA-hPKM2 in 293T cells; also called PMK2; hPKM2

Assay [1] deals with B2. Description: cell-based or functional assay.
The target of assay [2] is T1, vIRF3 (Δ250-280) mutant (Kaposi's sarcoma-associated herpesvirus …, UniProt F5HIC6 1-566).
T1 construct: V5-tagged, stably expressed in LECs; also called V5/vIRF3(Δ250-280); V5-vIRF3(Δ250-280)
T1 sequence: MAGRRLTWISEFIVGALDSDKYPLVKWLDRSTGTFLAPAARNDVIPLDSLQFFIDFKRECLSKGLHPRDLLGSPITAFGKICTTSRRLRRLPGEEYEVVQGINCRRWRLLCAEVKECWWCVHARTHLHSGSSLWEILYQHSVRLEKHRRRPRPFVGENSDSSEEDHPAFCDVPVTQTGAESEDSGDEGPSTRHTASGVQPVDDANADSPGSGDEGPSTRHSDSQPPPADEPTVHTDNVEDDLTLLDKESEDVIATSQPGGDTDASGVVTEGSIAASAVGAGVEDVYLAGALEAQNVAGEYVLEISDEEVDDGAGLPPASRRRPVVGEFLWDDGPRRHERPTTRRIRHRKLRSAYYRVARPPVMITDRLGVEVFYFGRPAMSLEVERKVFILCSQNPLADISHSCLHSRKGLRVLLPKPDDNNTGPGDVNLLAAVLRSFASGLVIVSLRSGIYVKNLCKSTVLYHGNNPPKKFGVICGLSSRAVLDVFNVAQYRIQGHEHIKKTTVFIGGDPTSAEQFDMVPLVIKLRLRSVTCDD
Description: told in words; LECs expressing the mutant.

Assay [3] has as its target T2, vIRF3 mutant with deleted aa250-260 (Kaposi's sarcoma-associated herpesvirus …, UniProt F5HIC6 1-566).
T2 construct: V5-tagged, expressed in LECs; end of the protein at 566 from the TM3 range (430-566); also called vIRF3(Δ250-260)
T2 sequence: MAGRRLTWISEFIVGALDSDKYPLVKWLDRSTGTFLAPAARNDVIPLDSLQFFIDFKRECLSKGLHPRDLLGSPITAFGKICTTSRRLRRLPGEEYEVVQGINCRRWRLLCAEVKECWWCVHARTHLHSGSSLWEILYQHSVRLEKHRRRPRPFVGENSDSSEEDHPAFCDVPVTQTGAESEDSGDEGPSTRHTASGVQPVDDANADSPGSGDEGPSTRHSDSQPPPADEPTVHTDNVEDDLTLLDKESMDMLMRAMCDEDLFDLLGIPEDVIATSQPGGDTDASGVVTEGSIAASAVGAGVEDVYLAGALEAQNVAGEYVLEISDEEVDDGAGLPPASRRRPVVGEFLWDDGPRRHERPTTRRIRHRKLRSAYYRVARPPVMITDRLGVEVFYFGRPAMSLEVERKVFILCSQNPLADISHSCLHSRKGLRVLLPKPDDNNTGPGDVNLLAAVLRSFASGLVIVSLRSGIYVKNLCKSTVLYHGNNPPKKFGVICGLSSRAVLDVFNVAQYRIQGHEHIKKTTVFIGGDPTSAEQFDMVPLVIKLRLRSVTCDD
Description: IP with anti-PKM2, blot with anti-V5, LEC lysates.

Take B1: in assay [1], the “Boyden chamber cell migration of LECs” value was 2 fold.
With B2, the binding result in assay [2] and in assay [3] was “no binding” each time.
